Paper PMC4614863, “New Insights into the RNA-Binding and E3 Ubiquitin Ligase Activities of Roquins”

Legend:
[1] = biological target: T1, RC3H2 RNA-binding region (HEPN+ROQ), wild type (Homo sapiens, UniProt Q9HBD1 87-404); test: ITC; ITC: 20 mM Tris-HCl pH 8.0, 150 mM NaCl, 1 mM TCEP, 25 C; 200-500 uM RNA injected into 15-30 uM protein, one-site model; conditions: protein: recombinant, tags: His6-tag (pET28-MHL N-terminal TEV-cleavable, or pNIC-CH C-terminal uncleavable), removed by TEV where applicable
T1 sequence: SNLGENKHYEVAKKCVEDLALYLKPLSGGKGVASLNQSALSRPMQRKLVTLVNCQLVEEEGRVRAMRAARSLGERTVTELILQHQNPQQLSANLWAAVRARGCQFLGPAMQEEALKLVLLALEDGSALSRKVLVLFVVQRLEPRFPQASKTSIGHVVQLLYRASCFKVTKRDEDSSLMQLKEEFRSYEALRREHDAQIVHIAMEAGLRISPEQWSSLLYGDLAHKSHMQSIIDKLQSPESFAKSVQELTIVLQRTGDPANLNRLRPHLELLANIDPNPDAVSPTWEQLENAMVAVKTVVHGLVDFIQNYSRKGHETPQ

[2] = biological target: T2, RC3H2 stem-loop triple mutant (Homo sapiens, UniProt Q9HBD1 87-404, Q244A;Y247A;R248E); test: as above; conditions: protein: recombinant; tags: His6-tag, removed by TEV where applicable; hairpin; mainly stem-loop in solution
T2 sequence: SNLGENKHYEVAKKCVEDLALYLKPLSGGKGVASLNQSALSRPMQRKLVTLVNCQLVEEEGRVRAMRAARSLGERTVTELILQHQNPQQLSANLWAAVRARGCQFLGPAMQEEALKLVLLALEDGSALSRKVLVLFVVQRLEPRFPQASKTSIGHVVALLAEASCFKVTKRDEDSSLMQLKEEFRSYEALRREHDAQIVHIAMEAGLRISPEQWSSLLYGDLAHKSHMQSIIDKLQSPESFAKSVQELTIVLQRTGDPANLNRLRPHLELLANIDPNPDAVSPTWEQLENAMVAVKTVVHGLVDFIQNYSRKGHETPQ

[3] = biological target: T2, RC3H2 stem-loop triple mutant; test: analytical SEC; 47.3 kDa complex; ITC: 20 mM Tris-HCl pH 8.0, 150 mM NaCl, 1 mM TCEP, 25 C; 200-500 uM RNA injected into 15-30 uM protein, one-site model; conditions: protein: recombinant; tags: His6-tag, removed by TEV where applicable; mixture of hairpin and self-duplex in solution
[4] = biological target: T3, RC3H2 quaternary mutant (triple mutant + phosphomimic) (Homo sapiens, UniProt Q9HBD1 87-404, Q244A;Y247A;R248E;S323E); test: ITC; attributed to duplex form of Tnf23; ITC: 20 mM Tris-HCl pH 8.0, 150 mM NaCl, 1 mM TCEP, 25 C; 200-500 uM RNA injected into 15-30 uM protein, one-site model; conditions: protein: recombinant; tags: His6-tag, removed by TEV where applicable; mixture of hairpin and self-duplex in solution
T3 sequence: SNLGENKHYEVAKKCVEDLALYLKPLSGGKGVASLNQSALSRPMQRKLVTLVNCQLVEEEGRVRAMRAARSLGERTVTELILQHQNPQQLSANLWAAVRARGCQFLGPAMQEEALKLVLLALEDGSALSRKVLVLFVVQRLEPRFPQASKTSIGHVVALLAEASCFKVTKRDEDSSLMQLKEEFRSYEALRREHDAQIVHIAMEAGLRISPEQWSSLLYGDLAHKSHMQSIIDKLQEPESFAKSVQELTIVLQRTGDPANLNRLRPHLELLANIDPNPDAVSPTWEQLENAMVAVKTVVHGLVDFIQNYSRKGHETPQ

[5] = biological target: T1, RC3H2 RNA-binding region (HEPN+ROQ), …; test: analytical SEC; ITC: 20 mM Tris-HCl pH 8.0, 150 mM NaCl, 1 mM TCEP, 25 C; 200-500 uM RNA injected into 15-30 uM protein, one-site model; conditions: protein: recombinant
[6] = biological target: T1, RC3H2 RNA-binding region (HEPN+ROQ), …; test: crystal structure; duplex contacts HEPN and ROQ; same ASU also has stem-loop RNA; 2.5 A; ITC: 20 mM Tris-HCl pH 8.0, 150 mM NaCl, 1 mM TCEP, 25 C; 200-500 uM RNA injected into 15-30 uM protein, one-site model; conditions: protein: recombinant; tags: His6-tag (pET28-MHL N-terminal TEV-cleavable, or pNIC-CH C-terminal uncleavable); removed by TEV where applicable; antiparallel self-duplex, 2 copies of strand; 10 Watson-Crick bp plus central UGU with U7-U9 wobble pairs
[7] = tags: His6-tag (pET28-MHL N-terminal TEV-cleavable, or pNIC-CH C-terminal uncleavable), removed by TEV where applicable, hairpin and/or self-duplex

## AUGUUCUGUGAACAC (structured_RNA) [Ier3 CDE RNA, 15-nt]
[1]; hairpin, mainly stem-loop in solution
  Kd: 356 ± 86 nM
[2]
  binding result: no binding

## ACAUGUUUUCUGUGAAAACGGAG (structured_RNA) [Tnf23 CDE RNA, 23-nt]
[3]
  binding result: binds
[4]
  Kd: 590 nM
[1]; mixture of hairpin and self-duplex in solution
  Kd: 144 ± 50 nM

## UUAAUAACUUCUGUGAAGUUGUUUAC (structured_RNA) [Roquin2 CDE RNA (called 27-nt; 26 nt printed)]
[5]; [7]
  binding result: binds

B1: dsICOS (called 24-bp; 23 nt printed) (dsRNA)
RNA 1: UCUUCAGUCUAGACAGUUCGCUU
RNA 2: AAGCGAACUGUCUAGACUGAAGA
[5]; tags: His6-tag (pET28-MHL N-terminal TEV-cleavable, or pNIC-CH C-terminal uncleavable; removed by TEV where applicable; ends not further stated)
  binding result: binds

B2: Ier3 CDE RNA duplex (crystal) (dsRNA)
RNA 1: AUGUUCUGUGAACAC
RNA 2: AUGUUCUGUGAACAC
[6]
  binding result: binds

## AUAACUUCUGUGAAGUUGC (structured_RNA) [Roquin CDE RNA, 19-nt]
[5]; [7]
  binding result: binds
